# Assay results reported in US20250283886A1.
# Values joined by “and” are separate entries in the source; they are usually repeats but may differ in a detail not shown here. Equal values may be shown once. Read-outs that look alike come from different tables or passages of the source.
# B1: ClpS from Thermosynochoccus elongatus (teClpS), labeled (protein)
# chain: MPQERQQVTRKHYPNYKVIVLNDDFNTFQHVAACLMKYIPNMTSDRAWELTNQVHYEGQAIVWVGPQEQAELYHEQLLRAGLTMAPLEPE
# B2: at ClpS1 (Agrobacterium tumifaciens ClpS1) labeled with Cy3, Q8UFN4 1-117 (protein)
# chain: MIAEPICMQGEGDGEDGGTNRGTSVITRVKPKTKRPNLYRVLLLNDDYTPMEFVIHILERFFQKDREAATRIMLHVHQHGVGECGVFTYEVAETKVSQVMDFARQHQHPLQCVMEKK
# B3: A. tumefaciens ClpS1 (protein)
# chain: B2 chain
# How the values were obtained:
# [1] = molecular target: polypeptides with a terminal leucine residue; test: single-molecule dwell time analysis
# [2] = molecular target: polypeptides with a terminal leucine residue
# [3] = molecular target: polypeptides with a terminal leucine residue; remark: listed apart in the source
# [4] = molecular target: … peptide containing N-terminal phenylalanine; test: single-molecule recognition of immobilized peptide, 500 nM of each binder
# [5] = molecular target: … peptide containing N-terminal phenylalanine; test: table of pulse statistics of the single-molecule recognition experiment
# [6] = molecular target: peptide having an N-terminal phenylalanine residue; test: single-molecule dwell time analysis, distribution of mean pulse durations, panel Phe; filtered 0.00s≤dur≤20.00s and magnitude above baseline > 15.0
# [7] = molecular target: polypeptides with a terminal leucine residue; test: single-molecule dwell time analysis, distribution of mean pulse durations, panel Leu; filtered 0.00s≤dur≤20.00s and magnitude above baseline > 15.0
# [8] = molecular target: peptide having an N-terminal tyrosine residue; test: single-molecule dwell time analysis, distribution of mean pulse durations, panel Tyr; filtered 0.00s≤dur≤20.00s and magnitude above baseline > 15.0
# [9] = molecular target: peptide having an N-terminal tryptophan residue; test: single-molecule dwell time analysis, distribution of mean pulse durations, panel Trp; filtered 0.00s≤dur≤20.00s and magnitude above baseline > 15.0
binder,measurement,setting,value
B1,mean pulse duration,[1],0.71 s
same,pulse duration M,[2],0.46 s and 0.63 s
same,pulse duration Mo,[2],0.5 s
same,pulse duration µ,[2],0.74 s and 0.82 s
same,pulse duration M,[3],0.43 s and 0.5 s
same,pulse duration µ,[3],0.68 s and 0.65 s
B2,mean pulse duration,[4],1.3 s
same,pulse rate,[4],8.1 pulses/min
same,N pulses,[5],98
same,median pulse width,[5],0.63 s
B3,mean pulse duration (value at the dashed line),[6],0.59 s
same,mean pulse duration (value at the dashed line),[7],0.31 s
same,mean pulse duration (value at the dashed line),[8],0.69 s
same,mean pulse duration (value at the dashed line),[9],0.34 s
